Laboratory results from PMC5700373, “Repression of YdaS Toxin Is Mediated by Transcriptional Repressor RacR in the Cryptic rac Prophage of Escherichia coli K-12”.

T1: RacR (Escherichia coli K-12) (UniProt P76062)
T1 sequence: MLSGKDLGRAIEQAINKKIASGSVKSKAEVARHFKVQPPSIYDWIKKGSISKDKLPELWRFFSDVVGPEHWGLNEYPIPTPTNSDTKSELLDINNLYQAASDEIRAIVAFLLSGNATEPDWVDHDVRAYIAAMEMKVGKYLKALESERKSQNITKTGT

T2: RacR (Escherichia coli K-12, UniProt P76062 1-158)
T2 sequence: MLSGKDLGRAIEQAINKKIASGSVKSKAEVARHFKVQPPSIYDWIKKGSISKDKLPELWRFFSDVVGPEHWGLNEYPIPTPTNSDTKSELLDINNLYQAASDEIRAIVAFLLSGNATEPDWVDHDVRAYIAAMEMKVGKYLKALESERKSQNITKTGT


Columns and labels:
[1] = target: T1, RacR (Escherichia coli K-12); test: EMSA; conditions: EMSA: 10x buffer 100 mM Tris pH 8, 10 mM EDTA, 1 M NaCl, 1 mM DTT, 50% glycerol, 0.1 mg/ml BSA (presumably 1x final), room temperature 1 h, SYBR green stain. …
RacR = target: T2, RacR; test: EMSA; 23.5 nM DNA, RacR up to 67.5 nM; single complex; EMSA: 10x buffer 100 mM Tris pH 8, 10 mM EDTA, 1 M NaCl, 1 mM DTT, 50% glycerol, 0.1 mg/ml BSA (presumably 1x final), room temperature 1 h, SYBR green stain. TSA: 50 mM Tris pH 8.5, 500 mM NaCl, 5% glycerol, 20-95 C; conditions: protein: recombinant; tags: C-terminal His (pET28a); chain copies: 2; blunt

Row | Molecule | binding [1] | binding result (RacR)
1 | TGCTTAATATTCTCCTATGCGCATTACATTAGGCAATCCCTACCCTTACTGCATTAGGCACAGCCTATTGACAATTGCGTTAGGCGTCGCCTAATATTTCTGTGTGTTTTTGGAGTTCATTCG (double strand) [123-bp racR-ydaS IGR] | binds | 
2 | 49-bp region upstream of ydaS (dsDNA) DNA 1: CGAATGAACTCCAAAAACACACAGAAATATTAGGCGACGCCTAACGCAA DNA 2: TTGCGTTAGGCGTCGCCTAATATTTCTGTGTGTTTTTGGAGTTCATTCG |  | binds
